{"source": "patent US20230210968A1", "about": "“RIBONUCLEOPROTEIN APPROACH TO BOOST THE STING SIGNALING FOR CANCER IMMUNOTHERAPY” (MASSACHUSETTS INSTITUTE OF TECHNOLOGY, priority 2020, published 2023)", "molecules": {"B1": {"name": "mSTINGΔTM (mouse STING amino acids 138-378) (other)", "chain": "LTPAEVSAVCEEKKLNVAHGLAWSYYIGYLRLILPGLQARIRMFNQLHNNMLSGAGSRRLYILFPLDCGVPDNLSVVDPNIRFRDMLPQQNIDRAGIKNRVYSNSVYEILENGQPAGVCILEYATPLQTLFAMSQDAKAGFSREDRLEQAKLFCRTLEEILEDVPESRNNCRLIVYQEPTDGNSFSLSQEVLRHIRQEEKEEVTMNAPMTSVAPPPSVLSQEPRLLISGMDQPLPLRTDLI", "notes": "Runs as a dimer (~60 kDa) without cGAMP and as a tetramer (~120 kDa) with cGAMP; Entries with this molecule as both partners are self-association; also called mouse STINGΔTM; recombinant transmembrane-deficient STING"}, "B2": {"name": "mSTINGΔTM R237A-Y239A (other)", "chain": "B1 chain with R100A, Y102A", "notes": "Expressed His-tagged; also called STINGΔTM R238A/Y240A; R237A/Y239A mutant STINGΔTM"}, "B3": {"name": "mouse STINGΔTM Q272A/A276Q (other)", "chain": "B1 chain with Q135A, A139Q", "notes": "Expressed His-tagged; also called Q272A/A276Q mutant; functional double mutant at the tetramer interface"}}, "key": {"[1]": {"tested_on": "STINGΔTM-induced STING signaling in HEK293T cells", "test": "Interferon activity in HEK293T cells pretreated with chemical inhibitors, then cGAMP-STINGΔTM", "assay_type": "cell-based, human", "conditions": "increasing inhibitor concentrations before cGAMP-STINGΔTM treatment", "protocol": "For the HEK293T cells, a reporter derivative from this cell line was first generated by transfecting pGL4.45[luc2P/ISRE/Hygro] (Promega company) and stably selected in 200 μg/ml hydromycin. The pGL4.45[luc2P/ISRE/Hygro] vector contains five copies of an interferon-stimulated response element (ISRE) that drives transcription of the luciferase reporter gene luc2P (Photinus pyralis). luc2p is a synthetically-derived luciferase sequence with humanized codon optimization that is designed for high expression and reduced anomalous transcription. The luc2P gene contains hPEST, a protein destabilization sequence, which allows luc2P protein levels to respond more quickly than those of […] to induction of transcription. […] Commercial transfection reagent TranslT-X2TM was used to help transfection (2 μg pDNA mixed with 4 μL TranslT-X2TM in 250 μL Opti-MEM media for each 6-well). […] Transfected cells were also harvested for western blotting."}, "MC38 cells": {"tested_on": "MC38 cells", "test": "Therapeutic treatment study, MC38 colon cancer model", "assay_type": "in vivo, C57BL/6 mice", "conditions": "intratumoral, 100 μg protein and/or 2.5 μg cGAMP, days 7, 14, 21, 28, 35", "quoted_text": "A therapeutic treatment study with an MC38 colon cancer model was then performed. […] The tumor size and survival were monitored on a schedule similar to that of the prophylactic study."}, "[2]": {"tested_on": "intracellular trafficking of the tetrameric complex (EEA1, TBK1, Golgi apparatus, LAMP1)", "test": "Immunocytochemistry / confocal microscopy of intracellular trafficking", "assay_type": "cell-based", "protocol": "Immunocytochemistry: Transfection and immune staining were performed in Millicell® EZ chamber slides (Millipore Sigma, Temecula, Calif., USA). […] Cells were imaged with an Inverted Olympus IX83 microscope equipped with a Hamamatsu ImagEM high sensitivity camera at the Swanson Biotechnology Center (MIT)."}, "[3]": {"target": "the molecule itself", "test": "FPLC size exclusion, cGAMP titration; self-association"}, "[4]": {"test": "Transmission electron microscopy particle size", "conditions": "in PBS"}, "[5]": {"target": "the molecule itself", "test": "FPLC size exclusion with cGAMP; self-association"}, "[6]": {"conditions": "tetrameric complex, 6 h post-transfection"}}, "note": "Residue numbers refer to the chain shown, from its start. Names may count otherwise."}
{"molecule": "CCN(CC)CCCC(C)Nc1ccnc2cc(Cl)ccc12", "note": "(stereo not shown) [CQ, chloroquine]", "values": [{"measurement": "interferon activity after inhibitor pretreatment", "setting": "[1]", "value": "increased interferon activity"}]}
{"molecule": "CO/C1=C\\C(C)=C\\[C@@H](C)[C@@H](O)[C@@H](C)C/C(C)=C/C=C/[C@H](OC)[C@@H]([C@@H](C)[C@@H](O)[C@H](C)[C@@]2(O)C[C@@H](O)[C@H](C)[C@@H](C(C)C)O2)OC1=O", "note": "[BafA1, bafilomycin A1]", "values": [{"measurement": "interferon activity after inhibitor pretreatment", "setting": "[1]", "value": "decreasing activity observed with increasing concentrations"}]}
{"molecule": "Nc1nc2c(ncn2[C@@H]2O[C@@H]3COP(=O)(O)O[C@H]4[C@@H](O)[C@H](n5cnc6c(N)ncnc65)O[C@@H]4COP(=O)(O)O[C@@H]2[C@@H]3O)c(=O)[nH]1", "note": "[cGAMP, 2′3′ cyclic guanosine monophosphate-adenosine monophosphate]", "values": [{"measurement": "tumor burden", "setting": "MC38 cells", "value": "significantly reduced tumor burden"}]}
{"molecule": "C[C@H]1CCC/C=C/[C@@H]2C[C@H](O)C[C@H]2[C@H](O)/C=C/C(=O)O1", "note": "[BFA, brefeldin A]", "values": [{"measurement": "interferon activity after inhibitor pretreatment", "setting": "[1]", "value": "insignificant effect"}]}
{"molecule": "O=C(NCCCNc1nc(Nc2cccc(CN3CCOCC3)c2)ncc1C1CC1)C1CCC1", "note": "[MRT, MRT67307]", "values": [{"measurement": "interferon activity after inhibitor pretreatment", "setting": "[1]", "value": "decrease with increasing concentrations"}]}
{"molecule": "B1", "values": [{"measurement": "co-localization with LAMP1", "setting": "[2]; 24 h post-transfection", "value": "co-localization with Lysosomal Associated Membrane Protein 1 (LAMP1) at 24 h post-transfection"}, {"measurement": "co-localization with Early Endosome Antigen 1 (EEA1)", "setting": "[2]; [6]", "value": "limited co-localization"}, {"measurement": "co-localization with TBK1", "setting": "[2]; [6]", "value": "co-localization of TBK1 with STINGΔTM in punctate structures"}, {"measurement": "co-localization with the Golgi apparatus", "setting": "[2]; with or without the addition of BFA", "value": "no significant evidence of STINGΔTM co-localization with the Golgi apparatus"}, {"measurement": "binding result", "setting": "[3]", "value": "binds"}, {"measurement": "particle diameter (TEM)", "setting": "[4]", "value": "~14", "unit": "nm"}]}
{"molecule": "B2", "values": [{"measurement": "binding result", "setting": "[3]", "value": "binds"}]}
{"molecule": "B3", "values": [{"measurement": "binding result", "setting": "[5]", "value": "binds"}]}
